T1: wt Dpo4 (DNA polymerase IV) (Sulfolobus solfataricus, UniProt Q97W02 1-352)
T1 sequence: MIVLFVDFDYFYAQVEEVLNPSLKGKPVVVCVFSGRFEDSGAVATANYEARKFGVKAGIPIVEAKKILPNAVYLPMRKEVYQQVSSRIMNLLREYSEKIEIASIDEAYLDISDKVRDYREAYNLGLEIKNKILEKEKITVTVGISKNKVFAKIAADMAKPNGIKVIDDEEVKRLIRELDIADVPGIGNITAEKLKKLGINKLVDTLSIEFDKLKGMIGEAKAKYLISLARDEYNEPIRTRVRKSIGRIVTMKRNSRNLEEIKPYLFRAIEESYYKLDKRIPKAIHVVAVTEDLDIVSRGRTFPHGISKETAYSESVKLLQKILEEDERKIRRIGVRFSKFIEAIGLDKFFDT

B1: DNAOH (21-mer/30-mer) (dsDNA)
DNA 1: CGAGCCGTCGCATCCTACCGC
DNA 2: GATGCTGCAGCGGTAGGATGCGACGGCTCG
B2: Alexa488-labeled DNAOH (dsDNA)
DNA 1: CGAGCCGTCGCATCCTACCGC
DNA 2: B1 DNA 2
modifications: 5-C6-amino-2'-deoxythymidine at T13 of primer (ninth base from 3' end)

Assays:
[1] = target: T1, wt Dpo4 (DNA polymerase IV); experiment: stopped-flow FRET
[2] = target: T1, wt Dpo4 (DNA polymerase IV); experiment: stopped-flow fluorescence anisotropy

Binder | binding result [1] | binding result [2]
B1 | binds | –
B2 | – | binds

— publication PMC8225418
